{
  "source": "patent US11369662B2",
  "about": "(The Medical College of Wisconsin, Inc., priority 2014, dated 2022)",
  "molecular_target": "T1, CXCR4 (Homo sapiens, UniProt P61073)",
  "T1 construct": "purchased Millipore",
  "T1 sequence (P61073 whole entry)": "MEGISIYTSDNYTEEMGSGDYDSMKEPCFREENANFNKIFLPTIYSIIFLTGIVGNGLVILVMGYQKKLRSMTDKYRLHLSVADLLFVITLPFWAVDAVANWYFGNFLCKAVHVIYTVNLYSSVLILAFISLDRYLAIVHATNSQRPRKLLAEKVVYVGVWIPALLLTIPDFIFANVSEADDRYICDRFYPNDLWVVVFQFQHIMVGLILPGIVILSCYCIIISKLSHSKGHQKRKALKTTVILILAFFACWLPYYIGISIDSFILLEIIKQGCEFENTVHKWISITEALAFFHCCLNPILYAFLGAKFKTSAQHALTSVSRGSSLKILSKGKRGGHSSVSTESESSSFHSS",
  "assay": "β-arrestin-2 recruitment BRET assay in HEK293 cells",
  "format": "cell-based",
  "conditions": "concentrations increased to 10 and 100 μM",
  "protocol": "β-arrestin-2 recruitment. β-arrestin-2 recruitment was measured using an intermolecular BRET assay performed as described previously. HEK293E cells were cotransfected with […] of CXCR4-eYFP construct with […] of β-arrestin-2-RLuc (a gift from Michel Bouvier, University of Montreal, Montreal, QC, Canada). For [acceptor]/[donor]titrations […] of β-arrestin-2-RLuc were cotransfected with increasing amounts of the CXCR4-eYFP construct. All transfections were completed to 2 mg/well with empty vector. […] Cells were washed once with PBS, and the RLuc substrate coelenterazine-II (NanoLight Technology) was added at a final concentration of […] to BRET buffer (PBS, 0.5 mM MgCl2, 0.1% w/v glucose). β-arrestin recruitment was measured 30 min after ligand addition. […]\nβ-arrestin-2 recruitment. β-arrestin-2 recruitment was measured using an intermolecular BRET assay performed as described previously. […] The medium of the cells was then changed to BRET buffer (PBS, 0.5 mM MgC2, 0.1% (w/v) BSA). β-arrestin-2 recruitment was measured 15 min after ligand addition, and 10 min after the addition of the RLuc3 substrate coelenterazine400a (NanoLight Technology) at a final concentration of […]. […]",
  "note": "“Also recorded” adds a separate entry of the source.",
  "data": [
    {"substance": "CXCL12WT: wild type CXCL12 (stromal cell-derived factor-1/SDF-1), SEQ ID NO:1", "values": [
      {"measurement": "shape of β-arrestin-2 recruitment dose response", "value": "bimodal recruitment; also recorded: bimodal stimulation"}
    ]}
  ]
}
